The source of these data is patent US20170129940A1.

What all share (settings): remark: other sources report otherwise
The target of assay [1] is T1, hCMV gH + gL + UL128 + UL130 + UL131A (co-expressed in HEK293T cells) (human cytomegalovirus), P12824. In words: competitor: 2F4-biotin; cell staining.
The target of assay [2] is T1, hCMV gH + gL + UL128 + UL130 + UL131A …. In words: competitor: 5A2-biotin; cell staining.
For assay [3] the target is unchanged. In words: competitor: 6G4-biotin; cell staining.
For assay [4] the target is unchanged. In words: competitor: 9I6-biotin; cell staining.
Assay [5] has the same target. In words: competitor: 10F7-biotin; cell staining.
Assay [6] has the same target. In words: competitor: 15D8-biotin; cell staining.
Assay [7] has the same target. In words: competitor: 1F11-biotin; cell staining.
Assay [8] shares this target. In words: competitor: 4I22-biotin; cell staining.
For assay [9] the target is unchanged. In words: competitor: 4N10-biotin; cell staining.
Assay [10] has the same target. In words: competitor: 2C12-biotin; cell staining.
For assay [11] the target is unchanged. In words: competitor: 8C15-biotin; cell staining.
The target is the same in assay [12]. In words: competitor: 8I21-biotin; cell staining.
Assay [13] shares this target. In words: competitor: 8J16-biotin; cell staining.

B1: 2C12 (antibody, V domains shown)
VH: QITLRESGPTLVKPTQTLTLTCTFSGFSLNTNGVGVGWIRQPPGKALEWLALIYWNGNEGYSPSLKSRLTITKDTSKNQVVLTMTNMDPVDTATYYCVHWPQGLTTVTRLAFDIWGQGTMVTVSS
VL: QSALTQPRSVSGSPGQSVTISCTGTTSDVGRYNFVSWYQQHPGKAPKLLMYDVSQRPSGVPSRFSGSKSGNTASLTISGLQAEDEAVFYCCSYAGGNFFSYVFGTGTKVTVL
As for B1, the Inhibition of binding (%) stood at 0% in assay [1]; 0% in assay [2]; 100% in assay [3]; 100% in assay [4]; 0% in [5]; 0% in [6]. The Inhibition of binding (%) in assay [7] was determined as 0%; in assay [8], 0%; in assay [9], 0%; in [10] it was 100%; in [11], 100%; in assay [12], 0%. For the same molecule, the Inhibition of binding (%) in [13] is 100%.

B2: 8J16 (antibody, V domains shown)
VH: QVQLQESGPGLVKPSETLSLTCSVSGGFTSSYYWSWIRQAPGKGLEWIGYVYYGESTDYNPSLKSRATISIDTSKNQFSLKLSSVTAADTAVYYCAREVDKRGFDYWGQGALVTVSS
VL: EIVLTQSPGTLSLSPGERATLSCRASQSVSGGYLAWYQQEPGQAPRLVIYGASSRATGIPDRFSASGSGTDFTLTITRLEPEDFAVYYCQQYGRTPLTFGGGTKVEIK
As for B2, the Inhibition of binding (%) in assay [1] is 0%; in assay [3], 100%; in assay [4], 70%; in assay [7], 0%; in [8] it was 0%; in assay [10], 100%. Besides, the results for the Inhibition of binding (%) in assay [11], in assay [12] and in assay [13] were 100%, 0% and 100%, respectively.

B3: 8C15 (antibody, V domains shown)
VH: QVQLQESGPGLVKPSETLSLTCTVSGGSIRSYYWSWIRQPPGKGLEWIGHIYYSGNTNYSPSLQSRVTISLDTPKNQFSLRLSSVTAADTAVYYCARHDVIVVRGVFDVWGQGTVVTVSS
VL: QSALTQPASVSGSPGQSITISCTGTSSDIGTYNLVSWYQQHPGKAPKVLIYDGSKRPSGVSSRFSASKSGNTASLTISGLQAEDETDYYCCSYAGTSDFFVVFGGGTKLTVL
For the molecule B3, the Inhibition of binding (%) in [3] was 100%; in assay [4], 100%; in assay [8], 0%; in [10] it was 100%; in assay [11] it was 100%; in assay [12] it was 0%. In addition, the Inhibition of binding (%) in [13] came to 100%.

B4: 9I6 (antibody, V domains shown)
VH: EVQLVQSGAEVKKPGESLKISCRESGDTFPAYWIAWVRQMPGKGLEWMGIIYPIDSETTYSPSFQGQVTISADKSINTAYLQWSSLKASDSAIYYCARGTSTGLREAFHIWGQGTMVTVSS
VL: DVVMTQSPLSLAVTLGQPAYISCRSSQSLGYSDGNTYLNWFQQRPGQSPRRLIYEVSNRDSGVPDRFSGSGSGTDFTLKISRVEAEDVGTYYCMQGTHWPPMCSFGQGTKLEIK
B4: the Inhibition of binding (%) in assay [1] worked out at 0%; in assay [3], 100%; in assay [4] it was 100%; in assay [7], 0%; in assay [8], 0%; in assay [10], 100%. Also, the values for the Inhibition of binding (%) in [11], in assay [12] and in assay [13] were 100%, 0% and 100%, respectively.
